# Article PMC10830565 (2024)
# T1: GST-BCL7B-CFP (Arabidopsis thaliana, UniProt Q9FLP2)
# T1 chain: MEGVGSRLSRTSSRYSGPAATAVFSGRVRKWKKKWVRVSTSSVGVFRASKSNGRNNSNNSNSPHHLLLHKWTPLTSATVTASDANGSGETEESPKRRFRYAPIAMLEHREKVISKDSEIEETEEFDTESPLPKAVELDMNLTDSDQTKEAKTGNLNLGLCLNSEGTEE
# T2: GST-BCL7A-YFP (Arabidopsis thaliana, UniProt F4JL58)
# T2 chain: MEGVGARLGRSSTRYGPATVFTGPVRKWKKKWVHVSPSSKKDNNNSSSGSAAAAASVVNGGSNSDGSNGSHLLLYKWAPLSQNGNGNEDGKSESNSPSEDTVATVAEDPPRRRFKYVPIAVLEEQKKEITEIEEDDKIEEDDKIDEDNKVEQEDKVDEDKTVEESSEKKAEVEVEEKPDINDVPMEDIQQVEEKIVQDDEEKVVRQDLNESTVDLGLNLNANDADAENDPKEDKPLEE
# B1: MBP-BRM (422-952)-HIS (protein)
# chain: MQQPRQLNTPTPNLVAPSDTGPLSNSSLQSGQGTQQAQQRSGFTKQQLHVLKAQILAFRRLKKGEGSLPPELLQAISPPPLELQTQRQISPAIGKVQDRSSDKTGEDQARSLECGKESQAAASSNGPIFSKEEDNVGDTEVALTTGHSQLFQNLGKEATSTDVATKEEQQTDVFPVKSDQGADSSTQKNPRSDSTADKGKAVASDGSQSKVPPQANSPQPPKDTASARKYYGPLFDFPFFTRKLDSYGSATANANNNLTLAYDIKDLICEEGAEFLSKKRTDSLKKINGLLAKNLERKRIRPDLVLRLQIEEKKLRLSDLQSRVREEVDRQQQEIMSMPDRPYRKFVRLCERQRLEMNRQVLANQKAVREKQLKTIFQWRKKLLEAHWAIRDARTARNRGVAKYHEKMLREFSKRKDDGRNKRMEALKNNDVERYREMLLEQQTNMPGDAAERYAVLSSFLTQTEDYLHKLGGKITATKNQQEVEEAANAAAVAARLQGLSEEEVRAAATCAREEVVIRNRFTEMNAPKEN
# Legend:
# [1] = molecular target: T1, GST-BCL7B-CFP; assay: GST pull-down
# [2] = molecular target: T2, GST-BCL7A-YFP; assay: GST pull-down
binder,measurement,setting,value
B1,binding result,[1],binds
same,binding result,[2],binds
